From publication PMC9170159 (Proceedings of the National Academy of Sciences of the …, 2022)

How the values were obtained:
[1] = molecular target: SARS-CoV-2 spike receptor-binding domain (RBD), Wuhan-Hu-1, His-tagged (SARS-CoV-2 (Wuhan-Hu-1), UniProt P0DTC2); assay: BLI; conditions: both partners purified
[2] = molecular target: SARS-CoV-2 (Wuhan-Hu-1) spike receptor-binding domain, His-tagged (SARS-CoV-2, UniProt P0DTC2 319-541); assay: BLI; conditions: both partners purified

Binder | Kd [1] [nM] | Kd [2] [nM]
NCI-CoV-7A3 monomeric VHH (VHH-His) (VHH) VHH: QVQLVESGGGSVQPGGSLRLSCVVSGYTSSSRYMGWFRQVPGKGLEWVSGIKRDGTNTYYADSVKGRFTISQDNAKNTVYLQMNSLKPEDTAMYYCAAGSWYNQWGYSMDYWGKGTQVTVSS | 0.96 | –
NCI-CoV-2F7 VHH-hFc fusion protein (Fc fusion, also called 2F7 VHH-Fc; source: Expi293 cells, transfected, purified (protein A column)) VHH: QVKLEESGGGSVQSGGSLRLSCTVSRDTNTNINRCMGWFRQAPGKGLETVATINRDGTNTYYTDAVKGRFTISQDNVKNTVYLQMNNLTPEDTGTYICNAMGRGSGSRCDNWDPNYWGQGTQVTVSS | – | 0.77
NCI-CoV-2F7 monomeric VHH (VHH-His) (VHH) VHH: QVKLEESGGGSVQSGGSLRLSCTVSRDTNTNINRCMGWFRQAPGKGLETVATINRDGTNTYYTDAVKGRFTISQDNVKNTVYLQMNNLTPEDTGTYICNAMGRGSGSRCDNWDPNYWGQGTQVTVSS | 0.75 | –
NCI-CoV-8A2 monomeric VHH (VHH-His) (VHH) VHH: AVQLVDSGGGSVQAGGSLRLSCAASGYTYSICTMGWYRQAPGEGLEWVSGINADGSNTHYTDSVKGRFTISRDNAKKTLYLQMNSLKPEDTAIYYCAAHGTYDKYAPCGGFAGTYTYWGQGTQVTVSS | 0.8 | –
